# Measurements as given in publication PMC9482650, “Quantitative fragmentomics allow affinity mapping of interactomes” (Nature Communications, 2022).
# B1: LPAR1, Q92633 (peptide)
# chain: GVHSNDHSVV
# B2: SLCO1B1, Q9Y6L6 (peptide)
# chain: SAGADSETHC
# Target: T1, CARD11, Q9BXL7
# T1 sequence (Q9BXL7 662-765, limits assumed, looked up): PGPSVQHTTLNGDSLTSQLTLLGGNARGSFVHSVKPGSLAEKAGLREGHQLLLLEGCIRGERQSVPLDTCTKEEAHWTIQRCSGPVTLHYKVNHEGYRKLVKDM
# Test: holdup assay
# Design: key: below the threshold = too weak to quantify, mostly under pKd 3.1 to 4
# Details: plain residues with an end cap or a label only (N-terminal biotin on a linker: ado-ado)
row,Binder,pKd
1,B1,below the threshold
2,B2,below the threshold

# Target: CASK, O14936
# Test: holdup assay
# Design: key: below the threshold = too weak to quantify, mostly under pKd 3.1 to 4
# Details: plain residues with an end cap or a label only (N-terminal biotin on a linker: ado-ado)
# Sequence of CASK, O14936 (O14936 487-570): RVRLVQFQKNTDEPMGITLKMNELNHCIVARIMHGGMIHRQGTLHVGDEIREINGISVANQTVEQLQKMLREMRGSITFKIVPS
row,Binder,pKd
1,B1,below the threshold
2,B2,below the threshold

# Target: DLG2_2, Q15700
# Test: holdup assay
# Design: key: below the threshold = too weak to quantify, mostly under pKd 3.1 to 4
# Details: plain residues with an end cap or a label only (N-terminal biotin on a linker: ado-ado)
# Sequence of DLG2_2, Q15700 (Q15700 189-283): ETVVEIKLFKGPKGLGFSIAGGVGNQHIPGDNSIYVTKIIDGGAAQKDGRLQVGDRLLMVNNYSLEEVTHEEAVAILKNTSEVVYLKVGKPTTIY
row,Binder,pKd
1,B1,3.74
2,B2,below the threshold

# Target: FRMPD2_1, Q68DX3
# Test: holdup assay
# Design: key: below the threshold = too weak to quantify, mostly under pKd 3.1 to 4
# Details: plain residues with an end cap or a label only (N-terminal biotin on a linker: ado-ado)
# Sequence of FRMPD2_1, Q68DX3 (Q68DX3 770-861): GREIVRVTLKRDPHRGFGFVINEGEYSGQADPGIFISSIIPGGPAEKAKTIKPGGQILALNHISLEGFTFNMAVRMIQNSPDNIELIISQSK
row,Binder,pKd
1,B1,below the threshold
2,B2,below the threshold

# Target: GOPC, Q9HD26
# Test: holdup assay
# Design: key: below the threshold = too weak to quantify, mostly under pKd 3.1 to 4
# Details: plain residues with an end cap or a label only (N-terminal biotin on a linker: ado-ado)
row,Binder,pKd
1,B1,3.59
2,B2,below the threshold

# Target: T2, GRIP1_2, Q9Y3R0
# T2 sequence (Q9Y3R0 145-248, limits assumed, looked up): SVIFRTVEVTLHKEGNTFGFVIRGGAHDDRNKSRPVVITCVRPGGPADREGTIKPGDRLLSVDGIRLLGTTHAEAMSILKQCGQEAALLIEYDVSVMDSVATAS
# Test: holdup assay
# Design: key: below the threshold = too weak to quantify, mostly under pKd 3.1 to 4
# Details: plain residues with an end cap or a label only (N-terminal biotin on a linker: ado-ado)
row,Binder,pKd
1,B1,below the threshold
2,B2,below the threshold

# Target: GRIP2_3, Q9C0E4
# Test: holdup assay
# Design: key: below the threshold = too weak to quantify, mostly under pKd 3.1 to 4
# Details: plain residues with an end cap or a label only (N-terminal biotin on a linker: ado-ado)
# Sequence of GRIP2_3, Q9C0E4 (Q9C0E4 238-339): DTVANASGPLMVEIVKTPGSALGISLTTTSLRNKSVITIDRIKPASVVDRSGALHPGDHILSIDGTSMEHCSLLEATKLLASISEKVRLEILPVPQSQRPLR
row,Binder,pKd
1,B1,below the threshold
2,B2,below the threshold

# Target: GRIP2_4, Q9C0E4
# Test: holdup assay
# Design: key: below the threshold = too weak to quantify, mostly under pKd 3.1 to 4
# Details: plain residues with an end cap or a label only (N-terminal biotin on a linker: ado-ado)
# Sequence of GRIP2_4, Q9C0E4 (Q9C0E4 446-548): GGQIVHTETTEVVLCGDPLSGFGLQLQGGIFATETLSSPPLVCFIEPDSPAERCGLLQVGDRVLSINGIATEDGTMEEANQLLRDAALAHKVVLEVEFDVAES
row,Binder,pKd
1,B1,below the threshold
2,B2,below the threshold

# Target: HTRA1, Q92743
# Test: holdup assay
# Design: key: below the threshold = too weak to quantify, mostly under pKd 3.1 to 4
# Details: plain residues with an end cap or a label only (N-terminal biotin on a linker: ado-ado)
# Sequence of HTRA1, Q92743 (Q92743 360-477): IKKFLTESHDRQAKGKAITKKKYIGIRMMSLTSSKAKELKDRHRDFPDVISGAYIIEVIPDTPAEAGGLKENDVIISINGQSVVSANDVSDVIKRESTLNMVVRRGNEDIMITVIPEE
row,Binder,pKd
1,B1,4.3
2,B2,3.51

# Target: T3, HTRA4, P83105
# T3 sequence (P83105 378-476, limits assumed, looked up): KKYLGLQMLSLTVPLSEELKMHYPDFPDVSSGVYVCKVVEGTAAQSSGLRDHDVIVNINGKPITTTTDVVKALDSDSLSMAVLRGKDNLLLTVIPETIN
# Test: holdup assay
# Design: key: below the threshold = too weak to quantify, mostly under pKd 3.1 to 4
# Details: plain residues with an end cap or a label only (N-terminal biotin on a linker: ado-ado)
row,Binder,pKd
1,B1,below the threshold
2,B2,below the threshold

# Target: Inadl_5, Q8NI35
# Test: holdup assay
# Design: key: below the threshold = too weak to quantify, mostly under pKd 3.1 to 4
# Details: plain residues with an end cap or a label only (N-terminal biotin on a linker: ado-ado)
# Sequence of Inadl_5, Q8NI35 (Q8NI35 673-780): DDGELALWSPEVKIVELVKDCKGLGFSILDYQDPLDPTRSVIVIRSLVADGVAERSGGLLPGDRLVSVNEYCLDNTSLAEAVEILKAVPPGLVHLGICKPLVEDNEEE
row,Binder,pKd
1,B1,below the threshold
2,B2,below the threshold

# Target: Inadl_6, Q8NI35
# Test: holdup assay
# Design: key: below the threshold = too weak to quantify, mostly under pKd 3.1 to 4
# Details: plain residues with an end cap or a label only (N-terminal biotin on a linker: ado-ado)
# Sequence of Inadl_6, Q8NI35 (Q8NI35 1058-1167): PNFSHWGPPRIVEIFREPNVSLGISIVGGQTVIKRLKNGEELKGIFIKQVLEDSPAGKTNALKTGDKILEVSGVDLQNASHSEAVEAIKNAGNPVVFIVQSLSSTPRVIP
row,Binder,pKd
1,B1,below the threshold
2,B2,below the threshold

# Target: LDB3, O75112
# Test: holdup assay
# Design: key: below the threshold = too weak to quantify, mostly under pKd 3.1 to 4
# Details: plain residues with an end cap or a label only (N-terminal biotin on a linker: ado-ado)
# Sequence of LDB3, O75112 (O75112 1-94): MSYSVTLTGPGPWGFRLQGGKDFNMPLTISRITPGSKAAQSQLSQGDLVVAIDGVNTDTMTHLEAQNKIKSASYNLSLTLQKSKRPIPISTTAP
row,Binder,pKd
1,B1,below the threshold
2,B2,below the threshold

# Target: LNX1_3, Q8TBB1
# Test: holdup assay
# Design: key: below the threshold = too weak to quantify, mostly under pKd 3.1 to 4
# Details: plain residues with an end cap or a label only (N-terminal biotin on a linker: ado-ado)
# Sequence of LNX1_3, Q8TBB1 (Q8TBB1 500-596): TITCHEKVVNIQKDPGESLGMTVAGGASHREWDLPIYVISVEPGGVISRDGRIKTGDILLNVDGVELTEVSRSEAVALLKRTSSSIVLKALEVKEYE
row,Binder,pKd
1,B1,below the threshold
2,B2,below the threshold

# Target: MAGI2_3, Q86UL8
# Test: holdup assay
# Design: key: below the threshold = too weak to quantify, mostly under pKd 3.1 to 4
# Details: plain residues with an end cap or a label only (N-terminal biotin on a linker: ado-ado)
# Sequence of MAGI2_3, Q86UL8 (Q86UL8 600-682): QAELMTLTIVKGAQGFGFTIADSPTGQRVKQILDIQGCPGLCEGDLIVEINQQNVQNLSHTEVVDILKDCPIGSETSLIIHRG
row,Binder,pKd
1,B1,below the threshold
2,B2,below the threshold

# Target: MAGI2_4, Q86UL8
# Test: holdup assay
# Design: key: below the threshold = too weak to quantify, mostly under pKd 3.1 to 4
# Details: plain residues with an end cap or a label only (N-terminal biotin on a linker: ado-ado)
# Sequence of MAGI2_4, Q86UL8 (Q86UL8 772-865): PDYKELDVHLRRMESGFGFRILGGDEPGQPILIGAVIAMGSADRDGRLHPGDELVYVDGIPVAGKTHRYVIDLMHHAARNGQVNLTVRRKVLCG
row,Binder,pKd
1,B1,below the threshold
2,B2,below the threshold

# Target: MAGI2_5, Q86UL8
# Test: holdup assay
# Design: key: below the threshold = too weak to quantify, mostly under pKd 3.1 to 4
# Details: plain residues with an end cap or a label only (N-terminal biotin on a linker: ado-ado)
# Sequence of MAGI2_5, Q86UL8 (Q86UL8 915-1017): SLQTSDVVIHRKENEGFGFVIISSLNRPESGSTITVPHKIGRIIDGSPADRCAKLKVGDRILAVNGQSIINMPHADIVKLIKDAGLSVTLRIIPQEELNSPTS
row,Binder,pKd
1,B1,below the threshold
2,B2,below the threshold

# Target: MAST1, Q9Y2H9
# Test: holdup assay
# Design: key: below the threshold = too weak to quantify, mostly under pKd 3.1 to 4
# Details: plain residues with an end cap or a label only (N-terminal biotin on a linker: ado-ado)
# Sequence of MAST1, Q9Y2H9 (Q9Y2H9 962-1065): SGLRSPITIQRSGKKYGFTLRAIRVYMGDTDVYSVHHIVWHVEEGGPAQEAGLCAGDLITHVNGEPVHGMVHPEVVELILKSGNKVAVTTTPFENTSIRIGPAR
row,Binder,pKd
1,B1,3.89
2,B2,3.9

# Target: T4, NHERF3_3, Q5T2W1
# T4 sequence (Q5T2W1 238-333, limits assumed, looked up): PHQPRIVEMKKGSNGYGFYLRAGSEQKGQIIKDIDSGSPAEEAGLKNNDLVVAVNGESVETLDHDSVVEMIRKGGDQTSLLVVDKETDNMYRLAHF
# Test: holdup assay
# Design: key: below the threshold = too weak to quantify, mostly under pKd 3.1 to 4
# Details: plain residues with an end cap or a label only (N-terminal biotin on a linker: ado-ado)
row,Binder,pKd
1,B1,below the threshold
2,B2,below the threshold

# Target: T5, NHERF3_4, Q5T2W1
# T5 sequence (Q5T2W1 373-468, limits assumed, looked up): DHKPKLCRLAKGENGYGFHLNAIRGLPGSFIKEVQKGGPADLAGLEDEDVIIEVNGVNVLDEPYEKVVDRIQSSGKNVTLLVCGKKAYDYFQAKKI
# Test: holdup assay
# Design: key: below the threshold = too weak to quantify, mostly under pKd 3.1 to 4
# Details: plain residues with an end cap or a label only (N-terminal biotin on a linker: ado-ado)
row,Binder,pKd
1,B1,below the threshold
2,B2,below the threshold

# Target: NHERF4_2, Q86UT5
# Test: holdup assay
# Design: key: below the threshold = too weak to quantify, mostly under pKd 3.1 to 4
# Details: plain residues with an end cap or a label only (N-terminal biotin on a linker: ado-ado)
# Sequence of NHERF4_2, Q86UT5 (Q86UT5 220-308): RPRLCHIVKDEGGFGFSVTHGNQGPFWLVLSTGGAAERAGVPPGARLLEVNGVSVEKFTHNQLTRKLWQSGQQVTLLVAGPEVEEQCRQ
row,Binder,pKd
1,B1,below the threshold
2,B2,below the threshold

# Target: T6, PDZD2_2, O15018
# T6 sequence (O15018 329-429, limits assumed, looked up): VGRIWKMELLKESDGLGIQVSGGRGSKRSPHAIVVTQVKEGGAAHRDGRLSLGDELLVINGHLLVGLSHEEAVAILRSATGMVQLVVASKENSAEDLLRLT
# Test: holdup assay
# Design: key: below the threshold = too weak to quantify, mostly under pKd 3.1 to 4
# Details: plain residues with an end cap or a label only (N-terminal biotin on a linker: ado-ado)
row,Binder,pKd
1,B1,4.99
2,B2,3.68

# Target: PICK1, Q9NRD5
# Test: holdup assay
# Design: key: below the threshold = too weak to quantify, mostly under pKd 3.1 to 4
# Details: plain residues with an end cap or a label only (N-terminal biotin on a linker: ado-ado)
# Sequence of PICK1, Q9NRD5 (Q9NRD5 17-115): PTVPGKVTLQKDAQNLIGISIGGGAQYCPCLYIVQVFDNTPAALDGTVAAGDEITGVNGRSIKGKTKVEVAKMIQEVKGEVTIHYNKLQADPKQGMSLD
row,Binder,pKd
1,B1,below the threshold
2,B2,below the threshold

# Target: PTPN3, P26045
# Test: holdup assay
# Design: key: below the threshold = too weak to quantify, mostly under pKd 3.1 to 4
# Details: plain residues with an end cap or a label only (N-terminal biotin on a linker: ado-ado)
# Sequence of PTPN3, P26045 (P26045 505-587): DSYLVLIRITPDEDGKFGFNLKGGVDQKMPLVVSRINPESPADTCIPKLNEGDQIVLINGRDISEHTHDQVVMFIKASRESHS
row,Binder,pKd
1,B1,below the threshold
2,B2,4.01

# Target: SCRIB_2, Q14160
# Test: holdup assay
# Design: key: below the threshold = too weak to quantify, mostly under pKd 3.1 to 4
# Details: plain residues with an end cap or a label only (N-terminal biotin on a linker: ado-ado)
# Sequence of SCRIB_2, Q14160 (Q14160 857-960): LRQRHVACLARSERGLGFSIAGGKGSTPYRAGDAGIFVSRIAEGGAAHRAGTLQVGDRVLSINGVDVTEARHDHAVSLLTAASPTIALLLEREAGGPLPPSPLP
row,Binder,pKd
1,B1,below the threshold
2,B2,below the threshold

# Target: T7, SIPA1L2, Q9P2F8
# T7 sequence (Q9P2F8 945-1036, limits assumed, looked up): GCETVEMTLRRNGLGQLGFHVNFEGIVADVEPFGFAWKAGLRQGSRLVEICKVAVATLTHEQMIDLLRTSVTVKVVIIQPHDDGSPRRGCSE
# Test: holdup assay
# Design: key: below the threshold = too weak to quantify, mostly under pKd 3.1 to 4
# Details: plain residues with an end cap or a label only (N-terminal biotin on a linker: ado-ado)
row,Binder,pKd
1,B1,below the threshold
2,B2,3.49

# Target: T8, SNTA1, Q13424
# T8 sequence (Q13424 82-180, limits assumed, looked up): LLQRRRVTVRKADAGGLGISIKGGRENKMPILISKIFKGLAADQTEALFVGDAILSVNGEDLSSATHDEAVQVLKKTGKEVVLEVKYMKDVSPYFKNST
# Test: holdup assay
# Design: key: below the threshold = too weak to quantify, mostly under pKd 3.1 to 4
# Details: plain residues with an end cap or a label only (N-terminal biotin on a linker: ado-ado)
row,Binder,pKd
1,B1,3.68
2,B2,below the threshold

# Target: T9, SNTG1, Q9NSN8
# T9 sequence (Q9NSN8 52-150, limits assumed, looked up): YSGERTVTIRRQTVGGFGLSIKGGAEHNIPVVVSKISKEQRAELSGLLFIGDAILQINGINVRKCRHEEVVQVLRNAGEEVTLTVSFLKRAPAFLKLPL
# Test: holdup assay
# Design: key: below the threshold = too weak to quantify, mostly under pKd 3.1 to 4
# Details: plain residues with an end cap or a label only (N-terminal biotin on a linker: ado-ado)
row,Binder,pKd
1,B1,below the threshold
2,B2,3.66

# Target: T10, TJP3_3, O95049
# T10 sequence (O95049 375-456, limits assumed, looked up): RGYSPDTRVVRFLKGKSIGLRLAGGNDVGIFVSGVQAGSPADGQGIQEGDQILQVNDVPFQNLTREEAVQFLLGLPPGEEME
# Test: holdup assay
# Design: key: below the threshold = too weak to quantify, mostly under pKd 3.1 to 4
# Details: plain residues with an end cap or a label only (N-terminal biotin on a linker: ado-ado)
row,Binder,pKd
1,B1,below the threshold
2,B2,below the threshold
